Experimental data: paper PMC3469540

Tested on: PSC (Posterior Sex Combs) (Drosophila)
Test: centrifugation (array oligomerization)
Settings: 50% of template pelleted; saturates at 2 PSC per nucleosome; not an affinity; Buffer, salt, pH and temperature of the nucleic acid binding assays not given in the material; EMSA on 0.8% agarose, 0.5X TBE after glutaraldehyde …

Substance: 12-nucleosome array
- K half (PSC per nucleosome): 0.25
